Measured values: IntAct's records for PubMed 29995851

B1: Protein patched homolog 1 (Homo sapiens), Q13635-1 (parent)
chain: MASAGNAAEPQDRGGGGSGCIGAPGRPAGGGRRRRTGGLRRAAAPDRDYLHRPSYCDAAFALEQISKGKATGRKAPLWLRAKFQRLLFKLGCYIQKNCGKFLVVGLLIFGAFAVGLKAANLETNVEELWVEVGGRVSRELNYTRQKIGEEAMFNPQLMIQTPKEEGANVLTTEALLQHLDSALQASRVHVYMYNRQWKLEHLCYKSGELITETGYMDQIIEYLYPCLIITPLDCFWEGAKLQSGTAYLLGKPPLRWTNFDPLEFLEELKKINYQVDSWEEMLNKAEVGHGYMDRPCLNPADPDCPATAPNKNSTKPLDMALVLNGGCHGLSRKYMHWQEELIVGGTVKNSTGKLVSAHALQTMFQLMTPKQMYEHFKGYEYVSHINWNEDKAAAILEAWQRTYVEVVHQSVAQNSTQKVLSFTTTTLDDILKSFSDVSVIRVASGYLLMLAYACLTMLRWDCSKSQGAVGLAGVLLVALSVAAGLGLCSLIGISFNAATTQVLPFLALGVGVDDVFLLAHAFSETGQNKRIPFEDRTGECLKRTGASVALTSISNVTAFFMAALIPIPALRAFSLQAAVVVVFNFAMVLLIFPAILSMDLYRREDRRLDIFCCFTSPCVSRVIQVEPQAYTDTHDNTRYSPPPPYSSHSFAHETQITMQSTVQLRTEYDPHTHVYYTTAEPRSEISVQPVTVTQDTLSCQSPESTSSTRDLLSQFSDSSLHCLEPPCTKWTLSSFAEKHYAPFLLKPKAKVVVIFLFLGLLGVSLYGTTRVRDGLDLTDIVPRETREYDFIAAQFKYFSFYNMYIVTQKADYPNIQHLLYDLHRSFSNVKYVMLEENKQLPKMWLHYFRDWLQGLQDAFDSDWETGKIMPNNYKNGSDDGVLAYKLLVQTGSRDKPIDISQLTKQRLVDADGIINPSAFYIYLTAWVSNDPVAYAASQANIRPHRPEWVHDKADYMPETRLRIPAAEPIEYAQFPFYLNGLRDTSDFVEAIEKVRTICSNYTSLGLSSYPNGYPFLFWEQYIGLRHWLLLFISVVLACTFLVCAVFLLNPWTAGIIVMVLALMTVELFGMMGLIGIKLSAVPVVILIASVGIGVEFTVHVALAFLTAIGDKNRRAVLALEHMFAPVLDGAVSTLLGVLMLAGSEFDFIVRYFFAVLAILTILGVLNGLVLLPVLLSFFGPYPEVSPANGLNRLPTPSPEPPPSVVRFAMPPGHTHSGSDSSDSEYSSQTTVSGLSEELRHYEAQQGAGGPAHQVIVEATENPVFAHSTVVHPESRHHPPSNPRQQPHLDSGSLPPGRQGQQPRRDPPREGLWPPPYRPRRDAFEISTEGHSGPSNRARWGPRGARSHNPRNPASTAMGSSVPGYCQPITTVTASASVTVAVHPPPVPGPGRNPRGGLCPGYPETDHGLFEDPHVPFHVRCERRDSKVEVIELQDVECEERPRGSSSN

Variants of: B1
Conditions: with shh_human SHH

| effect of a mutation on the interaction | Variant |
| --- | --- |
| disrupting interaction | E221A;Y222A;L223A;Y224A |
| decreasing interaction strength | L254A;W256A |
